This is an account of results in PMC10397247.

Where two headings read alike, the source gives them in different places.

One assay has as its target T1, 4H3628-bH.
T1 chain: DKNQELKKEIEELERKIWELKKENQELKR
The assay can be described thus: two-hybrid library CCNG1.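 Note: natural log of median RNA to DNA barcode read ratio; higher means stronger binding.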

In another assay the target is T2, 4H3497-bH.
T2 chain: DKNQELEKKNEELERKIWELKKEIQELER
The assay can be described thus: two-hybrid library CCNG1.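 Note: natural log of median RNA to DNA barcode read ratio; higher means stronger binding.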

In another assay the target is T3, 4H626-bH.
T3 chain: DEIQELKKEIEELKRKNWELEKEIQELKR
Description: two-hybrid library CCNG1.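 Note: natural log of median RNA to DNA barcode read ratio; higher means stronger binding.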

The target of the next assay is T4, 4H3462-bH.
T4 chain: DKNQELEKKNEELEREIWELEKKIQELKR
Description: two-hybrid library CCNG1.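 Note: natural log of median RNA to DNA barcode read ratio; higher means stronger binding.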

The next assay addresses T5, 4H3613-bH.
T5 chain: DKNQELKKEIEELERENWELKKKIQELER
The assay can be described thus: two-hybrid library CCNG1.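 Note: natural log of median RNA to DNA barcode read ratio; higher means stronger binding.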

For another assay, the target named is T6, 4H3926-bH.
T6 chain: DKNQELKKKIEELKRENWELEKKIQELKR
The assay can be described thus: two-hybrid library CCNG1.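 Note: natural log of median RNA to DNA barcode read ratio; higher means stronger binding.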

Another assay addresses T7, 4H591-bH.
T7 chain: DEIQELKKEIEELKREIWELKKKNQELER
Description: two-hybrid library CCNG1.

Another assay addresses T8, O2-bN.
T8 chain: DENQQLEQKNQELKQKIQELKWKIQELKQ
Description: two-hybrid library CCNG1.

The target of a further assay is T9, 4H906-bH.
T9 chain: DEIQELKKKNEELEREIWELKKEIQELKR
Description: two-hybrid library CCNG1.

The target in a further assay is T10, 4H619-bN.
T10 chain: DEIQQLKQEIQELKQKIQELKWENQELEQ
Description: two-hybrid library CCNG1.

For another assay, the target named is T11, 4H584-bN.
T11 chain: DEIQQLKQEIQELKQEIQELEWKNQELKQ
Description: two-hybrid library CCNG1.

A further assay concerns the target T12, P7A.
T12 chain: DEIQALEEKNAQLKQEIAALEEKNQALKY
The assay can be described thus: two-hybrid library CCNG1.

The target of the next assay is T13, 4H906-bN.
T13 chain: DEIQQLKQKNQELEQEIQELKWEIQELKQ
Description: two-hybrid library CCNG1.

The target of the next assay is T14, 4H570-bN.
T14 chain: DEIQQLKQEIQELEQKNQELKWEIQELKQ
Description: two-hybrid library CCNG1.

For another assay, the target named is T15, 4H850-bN.
T15 chain: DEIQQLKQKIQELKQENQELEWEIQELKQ
The assay can be described thus: two-hybrid library CCNG1.

The target in the next assay is T16, O8-bN.
T16 chain: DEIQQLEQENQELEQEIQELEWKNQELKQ
The assay can be described thus: two-hybrid library CCNG1.

The target in a further assay is T17, O4-bN.
T17 chain: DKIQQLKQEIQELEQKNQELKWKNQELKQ
Description: two-hybrid library CCNG1.

The target in the next assay is T18, O5-bN.
T18 chain: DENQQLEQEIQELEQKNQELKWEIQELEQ
The assay can be described thus: two-hybrid library CCNG1.

For the next assay, the target named is T19, O6-bN.
T19 chain: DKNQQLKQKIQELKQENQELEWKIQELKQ
Description: two-hybrid library CCNG1.

The next assay has as its target T20, O9-bN.
T20 chain: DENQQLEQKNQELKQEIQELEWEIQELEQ
The assay can be described thus: two-hybrid library CCNG1.

A further assay has as its target T21, O7-bN.
T21 chain: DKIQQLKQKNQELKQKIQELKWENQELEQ
Description: two-hybrid library CCNG1.

The next assay concerns the target T22, 4H3651-AA.
T22 chain: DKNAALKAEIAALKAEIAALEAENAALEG
Description: two-hybrid library CCmax. The conditions noted are these: mean of both orientations.

A further assay has as its target T23, 4H486-AA.
T23 chain: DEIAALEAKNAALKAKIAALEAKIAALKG
Description: two-hybrid library CCmax. The conditions noted are these: mean of both orientations.

For another assay, the target named is T24, 4H355-AA.
T24 chain: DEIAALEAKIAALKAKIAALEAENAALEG
The assay can be described thus: two-hybrid library CCmax. The conditions noted are these: mean of both orientations.

In another assay the target is T25, 4H_BCR.
T25 chain: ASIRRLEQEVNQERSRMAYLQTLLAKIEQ
The assay can be described thus: two-hybrid library CCmax. The conditions noted are these: mean of both orientations.

The next assay concerns the target T26, 4H3782-AA.
T26 chain: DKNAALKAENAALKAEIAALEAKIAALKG
Description: two-hybrid library CCmax. To be noted: mean of both orientations.

The target of the next assay is GCN2_T. The assay can be described thus: two-hybrid library CCmax.
A further assay concerns the target T27, 4H58-AA.
T27 chain: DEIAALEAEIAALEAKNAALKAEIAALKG
Description: two-hybrid library CCmax. The conditions noted are these: mean of both orientations.

In a further assay the target is T28, P3-AA.
T28 chain: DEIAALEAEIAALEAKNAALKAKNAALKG
Description: two-hybrid library CCmax.

The next assay deals with T29, 4H_APH.
T29 chain: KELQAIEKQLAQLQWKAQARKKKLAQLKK
Description: two-hybrid library CCmax. The conditions noted are these: mean of both orientations.

A further assay deals with T30, 4H3365-AA.
T30 chain: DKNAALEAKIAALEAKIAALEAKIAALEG
The assay can be described thus: two-hybrid library CCmax.

Another assay deals with T31, 4H895-AA.
T31 chain: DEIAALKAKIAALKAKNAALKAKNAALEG
The assay can be described thus: two-hybrid library CCmax. The conditions noted are these: mean of both orientations.

The target of the next assay is 4H_GCN4. The assay can be described thus: two-hybrid library CCmax.
For another assay, the target named is T32, 4H465-AA.
T32 chain: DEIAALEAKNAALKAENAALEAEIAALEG
The assay can be described thus: two-hybrid library CCmax. The conditions noted are these: mean of both orientations.

In a further assay the target is T33, 4H3705-AA.
T33 chain: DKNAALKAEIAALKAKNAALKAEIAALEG
Description: two-hybrid library CCmax. To be noted: mean of both orientations.

The next assay has as its target T34, 4H535-AA.
T34 chain: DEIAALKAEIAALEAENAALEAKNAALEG
Description: two-hybrid library CCmax. To be noted: mean of both orientations.

The next assay deals with T35, P8A.
T35 chain: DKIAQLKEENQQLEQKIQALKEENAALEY
Description: two-hybrid library CCNG1.

The target of a further assay is T36, P9A.
T36 chain: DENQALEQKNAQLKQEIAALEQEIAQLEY
The assay can be described thus: two-hybrid library CCNG1.

The target of a further assay is T37, P8bH1.
T37 chain: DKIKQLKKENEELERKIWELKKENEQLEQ
Description: two-hybrid library CCNG1.

The target of another assay is T38, P7bH1.
T38 chain: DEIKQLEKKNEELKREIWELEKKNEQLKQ
The assay can be described thus: two-hybrid library CCNG1.

A further assay concerns the target T39, P9bH1.
T39 chain: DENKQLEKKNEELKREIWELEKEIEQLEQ
The assay can be described thus: two-hybrid library CCNG1.

The next assay deals with T40, O9-bP.
T40 chain: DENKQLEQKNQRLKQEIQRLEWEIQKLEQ
The assay can be described thus: two-hybrid library CCNG1.

The next assay deals with T41, O6-bP.
T41 chain: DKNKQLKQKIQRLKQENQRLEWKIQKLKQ
Description: two-hybrid library CCNG1.

The next assay concerns the target T42, O7-bP.
T42 chain: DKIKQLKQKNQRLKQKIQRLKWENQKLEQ
The assay can be described thus: two-hybrid library CCNG1.

The next assay concerns the target T43, O4-bP.
T43 chain: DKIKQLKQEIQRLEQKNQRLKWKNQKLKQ
The assay can be described thus: two-hybrid library CCNG1.

The target of the next assay is T44, O8-bP.
T44 chain: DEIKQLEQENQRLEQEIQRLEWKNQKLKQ
The assay can be described thus: two-hybrid library CCNG1.

The next assay has as its target T45, O5-bP.
T45 chain: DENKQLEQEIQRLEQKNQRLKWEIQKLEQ
The assay can be described thus: two-hybrid library CCNG1.

The target in the next assay is T46, O3-bP.
T46 chain: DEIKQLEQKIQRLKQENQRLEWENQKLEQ
Description: two-hybrid library CCNG1.

A further assay addresses T47, 4H3020-AA.
T47 chain: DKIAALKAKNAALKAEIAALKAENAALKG
Description: two-hybrid library CCmax.

A further assay addresses T48, P6bH1.
T48 chain: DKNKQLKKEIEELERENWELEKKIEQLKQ
Description: two-hybrid library CCNG1.

4H_GCN4, sequence (chain, as listed by the source): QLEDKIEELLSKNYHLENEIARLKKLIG

As to DKNQELEKKNEELEREIWELEKKIQELKR [4H3462-bH], the interaction score is 0.726 with 4H3628-bH; 1.43 with 4H3497-bH; -0.748 in the assay with 4H626-bH; 0.634 with 4H3462-bH; -0.585 in the assay with 4H3613-bH; 0.869 with 4H3926-bH. The values for the interaction score in the assay with 4H591-bH, with O2-bN and with 4H906-bH were -0.285, 1.13 and 0.0503, respectively.

Turning to DEIQQLKQEIQELEQKNQELKWEIQELKQ [4H570-bN], the interaction score in the assay with 4H619-bN is -1.3; with 4H584-bN, 0.131; with P7A, -1.87; with 4H906-bN, -1.16; in the assay with 4H570-bN it was 0.618; with 4H850-bN it was 1.82.

With DKIQQLKQEIQELEQKNQELKWKNQELKQ [O4-bN], the interaction score in the assay with O8-bN was -0.553; with O4-bN, -0.666; with O5-bN, -0.492; with O6-bN, 0.639; with O9-bN, -0.542; with O7-bN, -0.226.

For the molecule DKNAALEAKIAALEAKIAALEAKIAALEG [4H3365-AA], the interaction score was -0.441 in the assay with 4H3651-AA; -1.2 with 4H486-AA; -0.823 with 4H355-AA; -1.47 with 4H_BCR; -1.46 with 4H3782-AA; -1.79 in the assay with GCN2_T. Besides, the interaction score with 4H58-AA is -1.67; in the assay with P3-AA it was -2.3; with 4H_APH, -1.21; in the assay with 4H3365-AA it was 1.76; with 4H895-AA, -1.35; with 4H_GCN4, -1.72. Moreover, the interaction score was -1.05 in the assay with 4H465-AA, -1.25 in the assay with 4H3705-AA and -1.33 with 4H535-AA.

As for DEIQALEEKNAQLKQEIAALEEKNQALKY [P7A], the interaction score with P8A is 2.24; in the assay with P9A, -0.697; with P7A, -0.598.

With DEIKQLEKKNEELKREIWELEKKNEQLKQ [P7bH1], the interaction score was 1.89 with P8bH1, -0.0541 with P7bH1 and -0.3 in the assay with P9bH1.

Consider DEIKQLEQKIQRLKQENQRLEWENQKLEQ [O3-bP], for which the interaction score is -1.8 in the assay with O9-bP; -0.828 with O6-bP; -1.61 with O7-bP; 1.15 with O4-bP; -0.905 in the assay with O8-bP; -1.53 with O5-bP. Besides, the interaction score with O3-bP was -0.797.

With DKIKQLKKENEELERKIWELKKENEQLEQ [P8bH1], the interaction score in the assay with P8bH1 is -0.114; in the assay with P9bH1, -0.01.

Regarding DKIAALKAKNAALKAEIAALKAENAALKG [4H3020-AA], the interaction score is -1.36 with 4H3651-AA; -1.33 with 4H486-AA; -1.86 with 4H355-AA; -1.87 with 4H_BCR; -1.57 with 4H3782-AA; 0.962 with 4H3020-AA. In addition, the interaction score with GCN2_T was -0.848; with 4H58-AA it was -0.528; in the assay with 4H_APH, -2.43; with 4H3365-AA (mean of both orientations) it was -1.49; with 4H895-AA, -1.5; with 4H_GCN4 (mean of both orientations) it was -0.937. For the same molecule, the interaction score in the assay with 4H465-AA was -1.7; in the assay with 4H3705-AA, -1.78; with 4H535-AA it was -1.47.

As for DKNKQLKKEIEELERENWELEKKIEQLKQ [P6bH1], the interaction score with P8bH1 was 0.525; with P7bH1, 1.39; in the assay with P9bH1, 0.0468; in the assay with P6bH1 it was -0.419.
